# Where a chain is given by its changes, count along the chain named.
# B1: chimeric 207F8G5 (antibody, human IgG1, kappa, V domains shown)
# VH: QAYLQQSGAELVRSGASVKMSCKASGFTFTSYNIHWVKQTPGQGLEWIGYISPGNGGSNYNLKFKDKATLTSATSSSTAYMQISSLTSEDSAVYFCATGRGFAYWGQGTLVTVSA
# VL: DIVMTQSPSSLTVTPGEKVTMSCKSSQSLFNSGNQKNYLIWYQQKPGQPPKLLIYRASTRDSGVPDRFTGSGSGTDFTLTISNVQAEDLAIYYCQNDYSYPLTFGAGTKLELKR
# notes: chimeric, human IgG1/kappa constant regions; also called 207F8G5-Chimeric
# B2: chimeric 265E6G2 (antibody, human IgG1, kappa, V domains shown)
# VH: QAYLQQSGAELVRSGASVKMSCKASGYTFTSYNMHWVKQTPGQGLEWIGYIYPGNGGTNYNQKFKGKATLTADTSSSTAYMQISSLTSEDSAVYFCARDYYGNSFAYWGQGTLVTVSA
# VL: B1 VL with I2L, P15A, F30L, I40T, R56W, D61E, V84I, I91V, T103P, K113R
# notes: chimeric, human IgG1/kappa constant regions
# B3: chimeric 253E4F7 (antibody, human IgG1, kappa, V domains shown)
# VH: EIQLQQSGPELMKPGASVKMSCKASGYSFTSYYIHWVKQSHGKSLEWIGYIDPFNGGTRYNQKFEGKATLTVDKSSTTAYMHLSSLTSEDSTVYYCASLRFLAYWGQGTLVTVSA
# VL: B1 VL with P15A, S22T, F30L, I40T, L52V, Y55S, D61Q, N83S, I91V
# notes: as for B2
# B4: chimeric 185F2G12 (antibody, human IgG1, kappa, V domains shown)
# VH: QAYLQQSGAELVRSGASVKMSCKASGYTFTSYNMHWVRQTPGQGLEWIGYIYPGNGGTNYSQKFKGKASLTADTSSTTAYMQISSLTSEDSAVYFCATGRGFAYWGQGTLVTVSA
# VL: B1 VL with P15A, M21L, S32T, I40T, Y55F, D61E, S73F, N83S, I91V, Y98F
# notes: as for B2
# B5: chimeric 262C7C10 (antibody, human IgG1, kappa, V domains shown)
# VH: B2 VH with S31N, M34I, T58N, N59Y, S77I
# VL: B1 VL with P15A, S22N, F30L, I40T, R56W, D61E, N83S, S99Y
# notes: as for B2
# B6: chimeric 237D2A4 (antibody, human IgG1, kappa, V domains shown)
# VH: QVQLKESGPGLVAPSQSLSITCTVSGFSLTSYGVSWVRQPPGKGLEWLGVIWGDGSTNYHSTLISRLRISKDKSKSQVFLKLNSLQTDDTATYYCAKAGRGNALDYWGQGTSVTVSS
# VL: B1 VL with P15A, F30L, I40T, R56W, D61E, N83S, I91V, Y100F
# notes: chimeric, human IgG1/kappa constant regions; also called 237D2A4-Chimeric
# B7: chimeric 246B5F2 (antibody, human IgG1, kappa, V domains shown)
# VH: EVMLVESGGGLMKPGGSLKLSCAASEFTFSNYAMSWVRQTPEKRLEWVATISSGRSSTYYPDSVKGRFTISRDNAKNTLYLQMSSLRSEDTAMYYCAGLGRGNAMEYWGQGTSVTVSS
# VL: DIVMTQSPSSLTVTAGEKVTLSCKSSQSLLNSGNQKNYLTWYQQKPGQPPKLLIYWASTRESGVPDRFTGSGSGTDFILTINSVQAEDLAVYYCQNAYSYPFTFGSGTKLEIKR
# notes: chimeric, human IgG1/kappa constant regions; also called 246B5F2-Chimeric
# B8: chimeric 370E2B12C3 (antibody, human IgG1, kappa, V domains shown)
# VH: QVQLKESGPGLVAPSQSLSITCTVSGFSLTTYGVHWVRQPPGKGLEWLGVIWAGGSTNYNSALMSRVSINKDNSKSQVFIKMNSLQADDTALYYCARAAYYGNGLDYWGQGTTLTVSS
# VL: B7 VL with L21M, S28T, R60G, I78T, N82S, Y93F, S99F, S106G
# notes: chimeric, human IgG1/kappa constant regions; also called 370E2B12C3-chimeric
# B9: chimeric 273C10E5 (antibody, human IgG1, kappa, V domains shown)
# VH: QVQLQQSGAELVKPGASVKLSCKASGYTFTSFGINWLRQRPEQGLEWIGWIFPGDGNSKYNENFKGKATLTTDKSSSTAYMQVTRLTSEDSAVYFCARFYYGNSFANWGQGTLVTVSA
# VL: B7 VL with L21M, S58A, T69A, I78T, N82S, A97D, S99F, S106A, I112L
# notes: as for B2
# B10: chimeric 250F4G4 (antibody, human IgG1, kappa, V domains shown)
# VH: B2 VH with Y32H, G57R, A97T
# VL: DIVMTQSPSSLTEKVGERVSMSCKSSQSLFNSGNQKNYLTWYQQKPGQPPKLLIYWASTRESGVPDRFTGSGSGTDFTLTISSVQAEDLAVYYCQNDYWYPFTFGAGTKLELKR
# notes: as for B2
# B11: chimeric 252E7C9 (antibody, human IgG1, kappa, V domains shown)
# VH: B2 VH with A2T, K23R, A24T, T28S, Y32H, T58S, N59Y, T69I, A97T, A106V
# VL: B10 VL with I2V, V15T, R18K, F30L, V84L, A86T, V91I, D97N, Y98F, W99R
# notes: as for B2
# B12: chimeric 232C5E3 (antibody, human IgG1, kappa, V domains shown)
# VH: B2 VH with Y32H, M34I, V37I, Q43K, G66A
# VL: B10 VL with V3M, K14T, V15A, R18K, F30L, T69S, D97G, W99R, Y100F
# notes: chimeric, human IgG1/kappa constant regions; also called 232C5E3-Chimeric
# B13: chimeric 257B1G9 (antibody, human IgG1, kappa, V domains shown)
# VH: B2 VH with Y32H, A97T
# VL: B10 VL with K14R, V15A, W99R
# notes: as for B2
# B14: chimeric 260G9E8 (antibody, human IgG1, kappa, V domains shown)
# VH: B2 VH with Y3D, T30A, Y32H, N59K, K65T, S84T
# VL: B10 VL with V15A, R18K, S22R, F30L, E87D, W99M, Y100F
# notes: as for B2
# B15: chimeric 257G7B9 (antibody, human IgG1, kappa, V domains shown)
# VH: B2 VH with Y32H, M34L, G57N, A97T
# VL: B10 VL with V15A, D97N, Y100F
# notes: as for B2
# B16: chimeric 407D8G1 (antibody, human IgG1, kappa, V domains shown)
# VH: DVQLVESGGGLVQPGGSRKLSCAASGFTFSGFGMHWIRQTPEKGLEWVAYISSGSRPIYYADTVQGRFTISRDNPKNTLFLQMTSLRSEDTAMYFCARFYYGNSFDHWGQGTLVTVSS
# VL: B7 VL with S10F, L21M, I78T, N82S, V91L, Y100F, F102L, S106A, I112L
# notes: as for B2
# B17: chimeric 418G6A5 (antibody, human IgG1, kappa, V domains shown)
# VH: DVQLVESGGGLVQPGGSRKLSCVASGFTFSSFGMHWVRQAPEKGLEWVAYISSGSSPMYYADTVKGRFTISRDNPKNTLFLQMTSLRSEDTAMYFCARIYYGNSFAYWGQGTLVTVSA
# VL: B7 VL with L21M, I78T, N82S, F102L, S106A, I112L
# notes: as for B2
# B18: chimeric 417A6F11 (antibody, human IgG1, kappa, V domains shown)
# VH: EVQLQQSGPELVKPGASMKISCKASGYSFTGYTMNWVKQSHGKNLEWIGLINPYNGGTSYNQKFKGKATLTVDKSSSTAYMELLSLTSEDSAVYYCARGDYWGQGTTLTVSS
# VL: DIVMTQSPSSLTVTAGEKVTMSCKSSQSLLNSGNQKNYLTWYQQKPGQPPKLLIYWASTRESGVPDRFTGSGSGTDFTLTISSVQAEDLAVYYCQNDYSYPTFGAGTKLELKR
# notes: as for B2
# Target: T1, human Claudin18.2 (human)
# T1 construct: also called CLDN18.2
# Assay: FACS, Claudin18.2-HEK293 cells
# Experimental: (§1) The binding of chimeric antibodies to Claudin18.2 expressed on HEK293 cells was determine by FACS analysis. Briefly, HEK293 cells expressing human Claudin18.2 as prepared in the foregoing Example were harvested and incubated with anti-Claudin18.2 mAbs at 4° C. for 40 min, followed by fluorophore (iFluor 647)-labeled goat […] IgG (H+L) secondary antibodies at 4° C. for 0.5 hour. The samples were then analyzed by flow cytometry.
row,Binder,EC50
1,B1,0.554 nM
2,B2,1.05 nM
3,B3,0.561 nM
4,B4,0.634 nM
5,B5,1.17 nM
6,B6,0.596 nM
7,B7,1.24 nM
8,B8,0.792 nM
9,B9,1.01 nM
10,B10,1.02 nM
11,B11,0.331 nM
12,B12,1.05 nM
13,B13,1.17 nM
14,B14,1.05 nM
15,B15,0.742 nM

# Target: T1, human Claudin18.2
# Assay: cell-based or functional assay
Binder,ADCC % Relative activity,ADCC EC50
B1,114%,0.0214 µg/mL
B2,77.8%,0.0321 µg/mL
B3,138%,0.0225 µg/mL
B4,399%,0.00886 µg/mL
B5,105%,0.0237 µg/mL
B6,169%,0.0214 µg/mL
B7,157%,0.023 µg/mL
B8,75.7%,0.0335 µg/mL
B9,92.1%,0.0275 µg/mL
B10,109%,0.0281 µg/mL
B11,98.7%,0.0311 µg/mL
B12,452%,0.00782 µg/mL
B13,68.2%,0.0454 µg/mL
B14,104%,0.024 µg/mL
B15,55.8%,0.0556 µg/mL

# Target: T1, human Claudin18.2
# Assay: cell-based or functional assay
# Remark: another data set of the same source
Binder,CDC % Relative activity,CDC EC50
B1,1300%,0.207 µg/mL
B2,487%,0.472 µg/mL
B3,1320%,0.205 µg/mL
B4,2100%,0.101 µg/mL
B5,666%,0.345 µg/mL
B6,1170%,0.231 µg/mL
B7,985%,0.274 µg/mL
B8,1200%,0.192 µg/mL
B9,854%,0.269 µg/mL
B10,875%,0.309 µg/mL
B11,991%,0.272 µg/mL
B12,2130%,0.0994 µg/mL
B13,642%,0.358 µg/mL
B14,684%,0.336 µg/mL
B15,760%,0.302 µg/mL

# Target: T1, human Claudin18.2
# Assay: FACS, Claudin18.2-HEK293 cells
# Remark: another data set of the same source
# Experimental: as §1
row,Binder,EC50
1,B16,0.533 nM
2,B17,0.595 nM
3,B18,2.48 nM

# Target: T1, human Claudin18.2
# Assay: FACS, Claudin18.2-HEK293 cells
# Remark: another data set of the same source
# Experimental: as §1
# After initial screening of cell binding with transfected supernatants, the binding pattern of chimeric and up to 3 humanized antibodies on Claudin18.2 expressed on HEK293 cells were plotted with antibody in 3× serial dilutions, starting concentration of 45 μg/ml, following the protocol described in Example 3.
Binder,EC50,Span
B1,0.17 µg/mL,11800
B6,0.0923 µg/mL,14800
B7,0.192 µg/mL,12400
B8,0.772 µg/mL,4570
B12,0.317 µg/mL,69700
